Experiment: soluble on expression in E. coli; label from the status in PepcDB or PDB records

Sequence	soluble on expression in E. coli
MSLQINVNPQAALSQNAIVNNSSFSLVSKDVRSAQYVALVDSGRNNIEPIHPRQNVRITLENALAEQFGSQGFRLSVNSENTITLEIQELLVSVKHSIMENQMDGSVVLEITAETPRGKLVKSYTGTAKRTGVLSASNDEIETVLNDVINTVLKEIANDAELQNYMQERFNGEGHHHHHH	soluble
MSLQKQRFCLDTTAITDSDVRKSLGVSNISESAEKIMDIIAQARVQLDISCHIPYDTVYKELVGFLTREGCAPETLIKVDTWLVKKTPNRYEIKIPAEIFYEYIKDLRERINKGMRISENAMYETALEAYILSKPDEKDREDVLNEVLSKTVNSFRVKYRNALRGGTLDSAPDLDVLLLAKELDAAVVANDEGIEKWAQRLGLRFVNARDFPFILQEYLDLWDKKEGHHHHHH	soluble
MSLQNMETRYTHSPADIRHYSTEQLRDEFLVEKVFIPGAISLTYTHNDRMIFGGVTPTTEELEIILDKELGVDYFLERRELGVINIGGPGFIEIDGAKETMKKQDGYYIGKETKHVRFSSENPDNPAKFYISCVPAHHKYPNVKISIDEITPMETGDPLTLNQRKIYQYIHPNVCESCQLQMGYTILEPGSAWNTMPCHTHERRMEAYVYFDMEEDTRIFHMMGKPDETKHLVMSNEQAAISPSWSIHSGVGTSNYSFIWAMCGENITYTDMDMVAMDQLKEGHHHHHH	soluble
MSLQPILQLLEKDEQREALHYFIEKLPQLKEATESMEEKITFIQHVMNDKQTLESLFAEWEAKAAPFRLTSEHFEAIATLIQLLPTLVQWLQKAEEFVSFVTSVMNDRESMAYLTKGIKDIVPIGKGLDILKETNERFACERDSTTVSLLRIYRLLKHPIVQDGVKYIETLLDVASKHK	not soluble
MSLQRYFIELTKQQIEEAPTFSITGEEVHHIVNVMRMNEGDQIICCSQDGFEAKCELQSVSKDKVSCLVIEWTNENRELPIKVYIASGLPKGDKLEWIIQKGTELGAHAFIPFQAARSVVKLDDKKAKKKRERWTKIAKEAAEQSYRNEVPRVMDVHSFQQLLQRMQDFDKCVVAYEESSKQGEISAFSAIVSSLPKGSSLLIVFGPEGGLTEAEVERLTEQDGVTCGLGPRILRTETAPLYALSAISYQTELLRGDQEGGSHHHHHH	soluble
MSLQSDMLAQSDMLACREMIKEGSHTFHAASKVLPRRISDPAIALYAFCRVADDAVDLGLDRAAAVELLKDRLDRACRGVPRAYPSDRAFADVVARFSIPPAIPEALIEGLEWDAQGRRFETLSDLYSYCARVAGTVGVMMTLVMGQRKPDIVARACDLGCAMQLTNIARDIGEDARNGRIYMPLSWMREAGLDPETWLANPKFTPEIASIVKRLIDTADALYDRATLGIANLPRSCRPGIFAARALYAEIGREVERSGLDSVSSRAVVSTGRKLAVLARLLAFQETEWAPAKYLPAKFGDMEETKFLVDAVIAHPVREGHHHHHH	soluble
MSLQSFRVQCPTSTITHNPNSNFPGGIKCQQISGGDGYSTMADGVQTYMFSFGPLSGLADIRNGLPGTQPASIFNTLGNPYTDTTFNGAVGLTPDPDSVPPNQIDGHVDPRPIMDIGVMNGNIPAPLMAIDEDDEFFLTLTNVGMIMRPDLFERHTVHFHGYPNASSFYDGVPDASVAINIGGSFTYYYLAPDAGTYFWHCHITPPEHLQMGMVGQIYVRPRQDRVPAGAALYTALVGQQADLRTACGTTDVLCSTPLPPTNAVKRLNNKNGTPTLYAYNDGDGSTAYDVEYPIQIHGFDPNFHFIGMTFNPEPFTDMKDKYFMLNGRSYPDTITPGPMTTPSSDGALHYSQPLPTVINIPAGGKALLRISNLDVTEYQTLASLGIPMHVIGINARLLRDMAGGDMTYYANSITLGGGESLDVLLDASDTSSYPRGSTFYLYTPNLDHLSNDAENFGGLMTEVHICGAVDPATKQCTEGHHHHHH	not soluble
MSLQSVKVNIPFWLTGSPNVGFEYTLTRQLTVNGEVLWMPYLFKKHEEVFRALQSSVELRYYVNPRNFYTNDSWDGFYIGPYAMYGNFNIGLLKHNDPLQSYRRKGWGVSGGISTGYKFAFNSRWGLDLNIGLGYAHLQYNKYYLGGEYVNFPLERKKTKRWIGPTKFGINLTYNIFREGHHHHHH	not soluble

Reference: the DeepSol protein solubility set
